In patent US20260265349A1 (GRIFFITH UNIVERSITY, published 2026):
Where “and” joins values, the source holds several entries; their conditions need not be identical. Equal values may be shown once. Read-outs that look alike come from different tables or passages of the source.

How the values were obtained:
[1] = target: T1, norovirus GII.10 Vietnam 026 virus-like particles (norovirus GII.10 Vietnam 026); test: direct ELISA on coated VLPs, heat map of OD492
T1 construct: also called GII.10 VLPs
T1 chain: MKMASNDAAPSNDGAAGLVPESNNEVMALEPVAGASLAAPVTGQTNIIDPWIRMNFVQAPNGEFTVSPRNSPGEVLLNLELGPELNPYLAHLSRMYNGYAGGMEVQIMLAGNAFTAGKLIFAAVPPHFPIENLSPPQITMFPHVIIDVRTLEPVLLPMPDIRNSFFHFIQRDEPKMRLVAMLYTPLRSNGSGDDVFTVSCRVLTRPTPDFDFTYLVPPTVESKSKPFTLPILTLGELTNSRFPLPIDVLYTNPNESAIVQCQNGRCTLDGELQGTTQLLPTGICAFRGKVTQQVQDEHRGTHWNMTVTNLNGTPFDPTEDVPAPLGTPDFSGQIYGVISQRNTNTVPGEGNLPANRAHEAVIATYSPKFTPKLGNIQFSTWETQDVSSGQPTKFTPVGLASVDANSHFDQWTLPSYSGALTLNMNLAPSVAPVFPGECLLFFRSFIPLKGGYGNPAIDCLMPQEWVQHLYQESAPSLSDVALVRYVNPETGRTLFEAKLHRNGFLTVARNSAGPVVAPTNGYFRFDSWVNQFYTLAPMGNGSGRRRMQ

[2] = target: T2, norovirus GII.17 Kawasaki308 virus-like particles (norovirus GII.17 Kawasaki308); test: direct ELISA on coated VLPs, heat map of OD492
T2 construct: also called GII.17 Kawasaki308 VLPs; GII.17 VLPs
T2 chain: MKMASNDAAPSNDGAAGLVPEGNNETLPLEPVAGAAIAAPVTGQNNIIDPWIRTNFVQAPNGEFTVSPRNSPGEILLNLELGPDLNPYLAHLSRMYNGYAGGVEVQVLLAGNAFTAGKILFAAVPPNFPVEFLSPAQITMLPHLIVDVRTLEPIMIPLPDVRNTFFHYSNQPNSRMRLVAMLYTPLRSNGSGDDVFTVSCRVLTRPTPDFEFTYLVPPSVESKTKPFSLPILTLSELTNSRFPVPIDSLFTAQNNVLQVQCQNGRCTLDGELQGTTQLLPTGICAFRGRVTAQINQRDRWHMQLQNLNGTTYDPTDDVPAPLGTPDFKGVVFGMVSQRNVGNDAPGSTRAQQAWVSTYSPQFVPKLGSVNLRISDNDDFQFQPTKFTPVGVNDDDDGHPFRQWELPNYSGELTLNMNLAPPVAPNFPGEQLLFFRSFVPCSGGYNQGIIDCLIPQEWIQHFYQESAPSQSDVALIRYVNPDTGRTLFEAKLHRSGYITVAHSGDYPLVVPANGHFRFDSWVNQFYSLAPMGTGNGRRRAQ

[3] = target: T3, norovirus GII.4 Sydney-2012 virus-like particles (norovirus GII.4 Sydney-2012, UniProt P54635 1-538); test: direct ELISA, VLPs coated at 2 µg/mL, His-tagged nanobody detected with anti-His-HRP, OD490
T3 construct: also called GII.4 Sydney-2012 VLPs; GII.4 VLPs
T3 chain: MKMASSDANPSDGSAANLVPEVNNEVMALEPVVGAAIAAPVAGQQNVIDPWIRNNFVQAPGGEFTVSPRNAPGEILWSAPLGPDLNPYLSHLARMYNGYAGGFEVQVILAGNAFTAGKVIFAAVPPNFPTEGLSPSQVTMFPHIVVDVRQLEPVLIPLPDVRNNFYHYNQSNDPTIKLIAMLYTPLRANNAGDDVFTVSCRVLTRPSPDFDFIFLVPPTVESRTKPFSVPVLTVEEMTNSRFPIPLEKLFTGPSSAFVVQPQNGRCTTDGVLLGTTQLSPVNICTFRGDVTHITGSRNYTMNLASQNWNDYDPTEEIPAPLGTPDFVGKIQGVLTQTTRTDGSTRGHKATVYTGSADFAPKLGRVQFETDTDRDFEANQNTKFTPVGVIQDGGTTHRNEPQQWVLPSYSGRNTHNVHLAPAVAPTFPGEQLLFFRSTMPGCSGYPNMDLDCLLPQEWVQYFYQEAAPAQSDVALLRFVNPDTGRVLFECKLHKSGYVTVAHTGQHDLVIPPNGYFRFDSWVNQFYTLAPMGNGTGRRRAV

[4] = target: T3, norovirus GII.4 Sydney-2012 virus-like …; test: blocking ELISA: VLPs pre-incubated with nanobody, attachment to PGM (HBGA) coated plate
[5] = target: T3, norovirus GII.4 Sydney-2012 virus-like …; test: direct ELISA on coated VLPs
[6] = target: T4, norovirus GII.4 Sydney-2012 P domain (norovirus GII.4 Sydney-2012); test: ITC, nanobody into P domain, 25 C
T4 construct: also called GII.4 P domain
T4 chain: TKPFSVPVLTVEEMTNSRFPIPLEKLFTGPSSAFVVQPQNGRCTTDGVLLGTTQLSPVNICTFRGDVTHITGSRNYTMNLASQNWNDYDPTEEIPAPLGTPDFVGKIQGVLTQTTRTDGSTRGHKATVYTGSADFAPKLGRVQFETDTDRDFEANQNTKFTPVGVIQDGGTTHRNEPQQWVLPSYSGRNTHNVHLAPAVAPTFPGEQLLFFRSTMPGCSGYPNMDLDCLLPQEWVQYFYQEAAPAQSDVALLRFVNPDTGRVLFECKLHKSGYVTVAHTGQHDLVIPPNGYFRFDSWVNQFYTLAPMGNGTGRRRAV
Experimental: (§1) Isothermal calorimetry (ITC) experiments were done using an ITC-200 (Malvern). Samples were prepared in PBS and filtered prior to the experiments. […] Injections were performed until saturation was achieved. To correct for heats of dilution from titrants control experiments were performed by titrating nanobodies into PBS. The heat associated with the control titration was subtracted from raw binding data prior to fitting. The data was fitted using a single set-binding model (Origin 7.0 software). Nanobody binding sites on the P domains were assumed to be identical. All ITC experiments were performed in triplicate with the average and standard deviation calculated.

[7] = target: T1, norovirus GII.10 Vietnam 026 virus-like …; test: direct ELISA on coated VLPs, heat map of OD492
[8] = target: T3, norovirus GII.4 Sydney-2012 virus-like …; test: direct ELISA on coated VLPs, heat map of OD492
[9] = target: T2, norovirus GII.17 Kawasaki308 virus-like …; test: blocking ELISA: VLPs pre-incubated with nanobody, attachment to PGM (HBGA) coated plate
[10] = target: T2, norovirus GII.17 Kawasaki308 virus-like …; test: direct ELISA on coated VLPs
[11] = target: T5, norovirus GII.17 Kawasaki308 P domain (norovirus GII.17 Kawasaki308); test: ITC, nanobody into P domain, 25 C
T5 construct: also called GII.17 P domain
T5 chain: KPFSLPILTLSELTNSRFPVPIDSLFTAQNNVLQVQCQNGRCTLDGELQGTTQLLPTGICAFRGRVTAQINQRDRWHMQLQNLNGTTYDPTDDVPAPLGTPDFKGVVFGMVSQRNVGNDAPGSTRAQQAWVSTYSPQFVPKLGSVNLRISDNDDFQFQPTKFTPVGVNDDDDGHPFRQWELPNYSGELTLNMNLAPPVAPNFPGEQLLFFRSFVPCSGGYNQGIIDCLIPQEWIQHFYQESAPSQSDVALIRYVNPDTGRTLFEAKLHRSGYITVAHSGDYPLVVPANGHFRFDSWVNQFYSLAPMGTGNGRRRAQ
Experimental: as §1

B1: NB-76 single domain antibody (VHH, not shown: small tags and cut ends)
VHH: QVQLQESGGGLVQAGGSLRLSCAASGTIFSIDAFGWYRQAPGKQREWVAGITSGSSTIYADFVKGRFTISRDNAKNTVFLQMNSLKPEDTAVYYCNRAKPPTYYSLEPWGKGTQVTVSS
notes: also called GII.4 nanobody
In the case of B1, the binding result [1] is reported as “no binding”, the binding result [2] is reported as “no binding” and the “EC50 (read off the curve)” value [3] is reported as ~2 µg/mL. The IC50 [4] was 1.42 µg/mL, the “nanobody concentration at the cut-off (OD490 0.15)” value (from here on “nanobody concentration”) [5] was 0.38 µg/mL and the “+TΔS” value [6] was 2.22 kcal/mol. The Kd [6] was 56.7 nM, the ΔG [6] was -9.89 kcal/mol and the ΔH [6] was -12.1 kcal/mol.

B2: NB-2 single domain antibody (VHH)
VHH: QVQLQESGGGLVQAGGSLRLSCAASGRFFSSYAMGWFRQAPGKEREFVAAISWSGGSTYYADSVKGRFTTSRDNAKNTVYLLMNSLKPEDTAVYYCAAAREGAYYPDSYYRTVRYDYWGQGTQVTVSS
notes: also called GII.17 nanobody; not shown: C-terminal His tag ('His-tagged nanobodies')
In the case of B2, the binding result [7] is reported as “no binding”, the binding result [8] is reported as “no binding” and the IC50 [9] is reported as 0.85 µg/mL and 0.84 µg/mL. For the same binder, the “nanobody concentration” value [10] was 0.78 µg/mL, the “+TΔS” value [11] was 6.14 kcal/mol and the Kd [11] was 7.5 nM. The ΔG [11] was -11.1 kcal/mol and the ΔH [11] was -17.2 kcal/mol.

B3: NB-45 single domain antibody (VHH)
VHH: QVQLQESGGGLVQAGGSLRLSCTVSGRTDSESTMGWFRQAAGKGREFVAAMNWRYATTYHTDSVKGRFTISKDSAKNTMYLQMNSLKPEDTAVYYCAHRYIYGSLSDSGSYDNWGQGTQVTVSS
notes: as for B2
In the case of B3, the binding result [7] is reported as “no binding”, the binding result [8] is reported as “no binding” and the IC50 [9] is reported as 0.46 µg/mL. For the same binder, the “+TΔS” value [11] was -4.4 kcal/mol, the Kd [11] was 101 nM and the ΔG [11] was -9.82 kcal/mol. It also gave a ΔH [11] of -5.43 kcal/mol.

B4: NB-7 single domain antibody (VHH)
VHH: QVQLQESGGGLVQAGGSLRLSCAASGRTFSSYRMGWYRQAPGKEREFVAAITGSGDSTNYADSVKGRFTVSGNSARNLVYLQMNSLKPEDTAVYLCVAYRTGGPPQWGQGTQVTVSS
notes: as for B2
With B4 the binding result [7] was “no binding”, the binding result [8] was “no binding” and the IC50 [9] was 0.88 µg/mL. The “nanobody concentration” value [10] was 1.56 µg/mL, the “+TΔS” value [11] was 10.2 kcal/mol and the Kd [11] was 40.9 nM. The ΔG [11] was -10.1 kcal/mol and the ΔH [11] was -20.3 kcal/mol.
